In patent publication US20070280950A1 (MEDICAL AND BIOLOGICAL LABORATORIES, published 2007):

How the values were obtained:
CD51 = biological target: T1, CD51 (human, UniProt P06756 31-1048); test: flow cytometry, PBMCs double-stained with antibody #33 plus secondary antibody and PE-labeled CD51 antibody
T1 construct: whole, on cells; Co-precipitated with CD61 by antibody #33 from THP-1 cells; ruled out as the antigen by double staining of PBMCs; also called CD51 (112 kDa)
Experimental: A flow cytometry was performed to determine which of CD51 and CD61, listed as candidate antigen molecules for antibody #33, is the antigen for antibody #33. After PBMCs were stained with antibody #33 and a secondary antibody, they were reacted with a PE-labeled CD51 antibody (BC) or a PE-labeled CD61 antibody (SZ21, BC) at 4° C. for 30 minutes and double-stained, after which flow cytometry was performed.

human CD61 = biological target: T2, human CD61 (human, UniProt P05106 27-788); test: flow cytometry on human cultured cells, 1 µg/ml antibody, FITC anti-mouse IgG secondary; Molt-4 and HUVEC also reactive; antigen later identified as CD61
T2 construct: whole, on cells; Endogenous protein on human cells; In the immunoprecipitation it was solubilised from biotinylated THP-1 cell surfaces with NP-40 and came down together with CD51; also called integrin β3-subunit; integrin β3 chain
Experimental: To identify the antigen of antibody #33, its reactivity to various human cultured cells was examined by flow cytometry. THP-1 activated macrophage-like cells, HPB-ALL, Jurkat, PM-1, Molt-4, KM-3, HL-60, K562, THP-1, U937, 293T, and HUVEC were used as these cells. The THP-1 activated macrophage-like cells were prepared by culturing and differentiating for two days the THP-1 human monocyte-like cell line in RPMI (Sigma) including Streptomycin/Penicillin (Gibco BRL) and 10% FCS (Equitech) into which phorbol ester (PMA) (Sigma) has been added to a final concentration of 5 ng/ml.
Blocking with 1 mg/ml human IgG (Sigma) in FCS was performed for the various human cultured cells (1.0×10⁵ cells) and cells were reacted in a PBS solution comprising 2% FCS (Equitech) antibody #33 at a final concentration of 1 μg/ml at 4° C. for 30 minutes. After washing twice with PBS comprising 2% FCS (Equitech), cells were further reacted with an FITC-labeled anti-mouse IgG secondary antibody (MBL) at 4° C. for 30 minutes. Samples were further washed twice with PBS containing 2% FCS (Equitech) and analyzed with a flow cytometer (ALTRA BC).

T2 sequence (P05106 27-788): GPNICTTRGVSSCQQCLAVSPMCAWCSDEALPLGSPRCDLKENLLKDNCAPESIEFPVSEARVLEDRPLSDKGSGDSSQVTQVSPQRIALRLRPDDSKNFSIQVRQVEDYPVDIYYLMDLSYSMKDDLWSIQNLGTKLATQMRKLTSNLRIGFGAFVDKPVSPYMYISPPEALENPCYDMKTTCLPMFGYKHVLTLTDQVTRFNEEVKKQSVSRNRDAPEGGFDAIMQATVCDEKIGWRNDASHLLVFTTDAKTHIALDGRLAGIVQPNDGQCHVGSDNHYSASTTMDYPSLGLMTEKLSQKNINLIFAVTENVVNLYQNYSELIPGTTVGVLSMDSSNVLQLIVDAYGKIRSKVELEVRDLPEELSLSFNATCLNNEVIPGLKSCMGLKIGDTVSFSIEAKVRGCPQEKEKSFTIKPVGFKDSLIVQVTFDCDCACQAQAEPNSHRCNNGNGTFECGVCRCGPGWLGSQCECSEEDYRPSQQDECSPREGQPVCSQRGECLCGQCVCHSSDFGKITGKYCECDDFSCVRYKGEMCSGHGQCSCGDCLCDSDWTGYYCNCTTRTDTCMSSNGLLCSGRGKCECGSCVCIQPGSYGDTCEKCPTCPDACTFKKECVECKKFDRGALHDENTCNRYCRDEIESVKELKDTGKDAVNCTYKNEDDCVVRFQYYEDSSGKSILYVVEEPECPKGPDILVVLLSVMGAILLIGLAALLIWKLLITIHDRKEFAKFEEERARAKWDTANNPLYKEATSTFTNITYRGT
T1 sequence (P06756 31-1048): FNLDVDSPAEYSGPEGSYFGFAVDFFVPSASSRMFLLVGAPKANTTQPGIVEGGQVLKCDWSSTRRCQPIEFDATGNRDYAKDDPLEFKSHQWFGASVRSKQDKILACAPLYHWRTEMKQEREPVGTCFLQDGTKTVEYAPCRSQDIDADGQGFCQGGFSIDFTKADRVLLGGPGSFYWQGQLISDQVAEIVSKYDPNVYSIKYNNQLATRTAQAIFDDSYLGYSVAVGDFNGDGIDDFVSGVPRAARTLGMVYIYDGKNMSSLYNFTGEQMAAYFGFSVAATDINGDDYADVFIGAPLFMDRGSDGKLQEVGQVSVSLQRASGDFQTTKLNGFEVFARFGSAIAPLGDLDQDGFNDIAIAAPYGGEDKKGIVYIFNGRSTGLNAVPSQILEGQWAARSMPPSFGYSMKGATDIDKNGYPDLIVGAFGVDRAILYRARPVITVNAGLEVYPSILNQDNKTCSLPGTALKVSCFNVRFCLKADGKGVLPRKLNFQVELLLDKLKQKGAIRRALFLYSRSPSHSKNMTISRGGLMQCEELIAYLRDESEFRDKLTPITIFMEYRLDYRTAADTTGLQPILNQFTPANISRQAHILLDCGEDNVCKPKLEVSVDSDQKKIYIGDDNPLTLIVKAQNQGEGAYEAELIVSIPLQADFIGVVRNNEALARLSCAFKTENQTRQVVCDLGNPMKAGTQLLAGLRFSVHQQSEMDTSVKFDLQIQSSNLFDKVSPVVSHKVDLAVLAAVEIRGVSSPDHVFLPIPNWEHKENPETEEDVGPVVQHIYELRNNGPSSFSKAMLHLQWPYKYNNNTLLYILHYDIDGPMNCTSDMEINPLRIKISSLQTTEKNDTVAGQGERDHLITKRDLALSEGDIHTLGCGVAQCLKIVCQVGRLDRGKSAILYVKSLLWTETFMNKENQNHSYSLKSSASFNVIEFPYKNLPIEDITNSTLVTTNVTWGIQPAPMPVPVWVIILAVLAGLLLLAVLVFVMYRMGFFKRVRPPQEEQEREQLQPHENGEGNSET

B1: antibody #33 (antibody, IgG2a, V domains shown)
VH: EVQLLQSGPELVKPGASMKISCKASGYSFTGYTMNWVKQSHGKNLEWIGLINPYSGVTTYNQRFKGKATLTVDKSSSTAYMELLSLTSEDSAVYYCATRGALGQAYYFDYWGQGTTLTVSS
VL: QIVLTQSPVIMSASPGERVTLTCSASSSVNYMHWYQQKSGTSPKRWIYDTSKLASGVPPRFSGSGFGTSYSLTITNMEAEDAATYYCQQWSSKPPTFGFGTKLELQR
notes: also called monoclonal antibody #33; mouse anti-human CD61 antibody
- binding result (CD51): no binding
- binding result (human CD61): binds
